The target of data set [1] is T1, MBP-Miz-1-ZF (Homo sapiens) (UniProt Q13105).
T1 sequence (Q13105 269-793, looked up): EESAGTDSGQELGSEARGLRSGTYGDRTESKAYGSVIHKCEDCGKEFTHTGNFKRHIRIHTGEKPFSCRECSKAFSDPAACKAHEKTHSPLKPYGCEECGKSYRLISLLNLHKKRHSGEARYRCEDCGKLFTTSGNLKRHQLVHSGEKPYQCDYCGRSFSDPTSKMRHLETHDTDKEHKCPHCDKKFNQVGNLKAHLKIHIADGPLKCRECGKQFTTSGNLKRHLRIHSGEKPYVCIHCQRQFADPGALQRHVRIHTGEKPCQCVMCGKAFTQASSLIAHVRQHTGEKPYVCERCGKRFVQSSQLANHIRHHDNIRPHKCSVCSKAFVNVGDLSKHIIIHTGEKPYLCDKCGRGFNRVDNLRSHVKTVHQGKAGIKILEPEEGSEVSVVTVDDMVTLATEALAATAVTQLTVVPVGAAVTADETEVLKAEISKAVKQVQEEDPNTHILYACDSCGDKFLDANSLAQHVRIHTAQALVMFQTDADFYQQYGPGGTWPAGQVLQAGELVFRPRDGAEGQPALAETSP
The experiment in a line: competition. Conditions: EMSA: ZBA (10 mM Tris pH 7.5, 90 mM KCl, 1 mM MgCl2, 90 uM ZnCl2, 5 mM DTT) with 100 ng/ul poly(dI-dC), 15 min, room temperature, 5% acrylamide gel in 0.5X …. (In general: A gel shift assay detects complexes by their altered migration in electrophoresis.)

The target in the next data set is Cux1 (UniProt P39880). The data set is described as follows: EMSA. The note with it: EMSA: ZBA (10 mM Tris pH 7.5, 90 mM KCl, 1 mM MgCl2, 90 uM ZnCl2, 5 mM DTT) with 100 ng/ul poly(dI-dC), 15 min, room temperature, 5% acrylamide gel in 0.5X ….
The target in data set [2] is T2, MBP-Miz-1-FL (Homo sapiens, UniProt Q13105 1-803).
T2 sequence: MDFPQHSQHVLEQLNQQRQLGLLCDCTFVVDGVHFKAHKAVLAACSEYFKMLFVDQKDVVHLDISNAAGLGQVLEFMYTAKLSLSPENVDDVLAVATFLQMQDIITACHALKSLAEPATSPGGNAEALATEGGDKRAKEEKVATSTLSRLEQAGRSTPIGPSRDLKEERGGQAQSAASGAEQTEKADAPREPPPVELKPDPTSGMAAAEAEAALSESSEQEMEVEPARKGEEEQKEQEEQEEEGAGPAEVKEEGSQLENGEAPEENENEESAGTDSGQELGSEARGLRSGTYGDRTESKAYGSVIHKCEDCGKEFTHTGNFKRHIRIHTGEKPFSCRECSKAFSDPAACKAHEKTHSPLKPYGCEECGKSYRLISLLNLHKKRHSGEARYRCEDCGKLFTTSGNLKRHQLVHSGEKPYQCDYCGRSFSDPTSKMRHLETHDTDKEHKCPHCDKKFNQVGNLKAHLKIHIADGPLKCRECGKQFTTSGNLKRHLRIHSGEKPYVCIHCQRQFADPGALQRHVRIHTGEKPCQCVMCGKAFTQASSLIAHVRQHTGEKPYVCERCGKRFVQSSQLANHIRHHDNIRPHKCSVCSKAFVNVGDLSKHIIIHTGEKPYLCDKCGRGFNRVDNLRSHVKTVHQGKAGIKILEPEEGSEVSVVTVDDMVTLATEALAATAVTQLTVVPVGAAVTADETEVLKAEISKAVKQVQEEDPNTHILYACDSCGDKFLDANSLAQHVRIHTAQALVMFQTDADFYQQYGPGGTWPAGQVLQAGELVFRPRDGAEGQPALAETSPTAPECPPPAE
The experiment in a line: competition; 200-fold unlabeled P2 vs labeled P1; EMSA: ZBA (10 mM Tris pH 7.5, 90 mM KCl, 1 mM MgCl2, 90 uM ZnCl2, 5 mM DTT) with 100 ng/ul poly(dI-dC), 15 min, room temperature; 5% acrylamide gel in 0.5X Tris-borate at 4 C. The note with it: protein: recombinant; tags: N-terminal MBP; label: 5' IRDye 700 (labeled version); blunt.

The target of data set [3] is T2, MBP-Miz-1-FL. The data set is described as follows: competition; 200-fold unlabeled P2 vs labeled P2; EMSA: ZBA (10 mM Tris pH 7.5, 90 mM KCl, 1 mM MgCl2, 90 uM ZnCl2, 5 mM DTT) with 100 ng/ul poly(dI-dC), 15 min, room temperature; 5% acrylamide gel in 0.5X Tris-borate at 4 C. Conditions: protein: recombinant; tags: N-terminal MBP; label: 5' IRDye 700 (labeled version); blunt.

Data set [4] deals with T2, MBP-Miz-1-FL. The data set is described as follows: EMSA; EMSA: ZBA (10 mM Tris pH 7.5, 90 mM KCl, 1 mM MgCl2, 90 uM ZnCl2, 5 mM DTT) with 100 ng/ul poly(dI-dC), 15 min, room temperature; 5% acrylamide gel in 0.5X Tris-borate at 4 C. Conditions: protein: recombinant; tags: N-terminal MBP; label: 5' IRDye 700; blunt.
In the next data set the target is T3, Miz-1 untagged (Homo sapiens, UniProt Q13105 1-803).
T3 sequence: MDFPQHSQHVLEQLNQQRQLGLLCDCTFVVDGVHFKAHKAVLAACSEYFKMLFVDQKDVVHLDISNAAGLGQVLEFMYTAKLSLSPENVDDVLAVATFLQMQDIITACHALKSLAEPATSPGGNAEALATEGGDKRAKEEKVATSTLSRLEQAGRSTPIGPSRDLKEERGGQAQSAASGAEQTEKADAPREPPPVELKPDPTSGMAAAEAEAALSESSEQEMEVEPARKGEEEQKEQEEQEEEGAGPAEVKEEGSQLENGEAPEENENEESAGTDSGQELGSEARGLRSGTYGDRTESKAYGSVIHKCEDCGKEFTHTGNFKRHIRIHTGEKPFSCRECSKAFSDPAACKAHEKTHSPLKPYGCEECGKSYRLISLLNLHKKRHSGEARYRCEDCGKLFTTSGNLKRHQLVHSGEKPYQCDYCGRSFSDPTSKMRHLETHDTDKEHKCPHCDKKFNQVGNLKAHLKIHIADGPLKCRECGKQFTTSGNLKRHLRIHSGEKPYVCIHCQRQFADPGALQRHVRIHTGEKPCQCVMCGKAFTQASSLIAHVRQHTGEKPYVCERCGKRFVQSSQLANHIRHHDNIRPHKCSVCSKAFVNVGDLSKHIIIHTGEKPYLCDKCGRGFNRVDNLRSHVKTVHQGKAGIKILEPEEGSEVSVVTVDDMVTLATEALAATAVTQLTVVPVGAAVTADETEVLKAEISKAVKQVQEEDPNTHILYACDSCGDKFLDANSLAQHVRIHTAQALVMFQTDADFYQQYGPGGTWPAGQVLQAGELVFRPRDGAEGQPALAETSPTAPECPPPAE
Described as above. The note with it: protein: ivt; tags: none; label: 5' IRDye 700; blunt.

Data set [5] addresses T4, Miz-1 (Figure 7 preparation) (UniProt Q13105 1-803).
T4 sequence: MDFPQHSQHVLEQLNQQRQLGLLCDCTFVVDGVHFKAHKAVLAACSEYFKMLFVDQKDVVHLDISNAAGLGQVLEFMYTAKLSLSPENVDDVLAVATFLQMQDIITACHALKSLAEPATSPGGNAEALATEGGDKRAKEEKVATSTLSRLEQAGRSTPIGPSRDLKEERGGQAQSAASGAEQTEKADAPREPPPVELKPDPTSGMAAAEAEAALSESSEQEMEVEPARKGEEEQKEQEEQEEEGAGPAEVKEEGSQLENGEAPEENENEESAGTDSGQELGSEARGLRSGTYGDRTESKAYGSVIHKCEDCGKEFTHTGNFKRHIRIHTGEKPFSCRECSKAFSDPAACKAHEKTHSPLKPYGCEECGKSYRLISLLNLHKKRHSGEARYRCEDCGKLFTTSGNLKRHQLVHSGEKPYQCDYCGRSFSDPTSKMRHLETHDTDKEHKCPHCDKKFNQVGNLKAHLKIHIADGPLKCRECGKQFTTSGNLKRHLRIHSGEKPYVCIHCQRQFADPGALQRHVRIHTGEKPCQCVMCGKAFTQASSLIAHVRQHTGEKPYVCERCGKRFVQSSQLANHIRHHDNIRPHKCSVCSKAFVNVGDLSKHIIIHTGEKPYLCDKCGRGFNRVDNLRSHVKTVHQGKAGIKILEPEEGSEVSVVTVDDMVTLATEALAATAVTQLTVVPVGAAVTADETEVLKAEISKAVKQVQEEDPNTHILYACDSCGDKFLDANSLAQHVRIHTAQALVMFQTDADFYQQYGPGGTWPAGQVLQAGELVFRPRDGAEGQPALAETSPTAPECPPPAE
Described as above. Conditions: protein: ivt; label: 5' IRDye 700; blunt.

Data set [6] addresses T2, MBP-Miz-1-FL. The data set is described as follows: competition; unlabeled P1m3 vs labeled P1 or P2; range over both proteins and probes; EMSA: ZBA (10 mM Tris pH 7.5, 90 mM KCl, 1 mM MgCl2, 90 uM ZnCl2, 5 mM DTT) with 100 ng/ul poly(dI-dC), 15 min, room temperature; 5% acrylamide gel in 0.5X Tris-borate at 4 C. The note with it: protein: recombinant; tags: N-terminal MBP; blunt.

Data set [7] has as its target T4, Miz-1 (Figure 7 preparation). The data set is described as follows: EMSA; EMSA: ZBA (10 mM Tris pH 7.5, 90 mM KCl, 1 mM MgCl2, 90 uM ZnCl2, 5 mM DTT) with 100 ng/ul poly(dI-dC), 15 min, room temperature; 5% acrylamide gel in 0.5X Tris-borate at 4 C. The note with it: protein: ivt; label: 5' IRDye 700 (labeled version); blunt.
Data set [8] deals with T2, MBP-Miz-1-FL. The data set is described as follows: competition; 200-fold unlabeled P1 vs labeled P1; EMSA: ZBA (10 mM Tris pH 7.5, 90 mM KCl, 1 mM MgCl2, 90 uM ZnCl2, 5 mM DTT) with 100 ng/ul poly(dI-dC), 15 min, room temperature; 5% acrylamide gel in 0.5X Tris-borate at 4 C. Conditions: protein: recombinant; tags: N-terminal MBP; label: 5' IRDye 700 (labeled version); blunt.

For data set [9], the target named is T2, MBP-Miz-1-FL. The data set is described as follows: competition; 200-fold unlabeled P1 vs labeled P2; EMSA: ZBA (10 mM Tris pH 7.5, 90 mM KCl, 1 mM MgCl2, 90 uM ZnCl2, 5 mM DTT) with 100 ng/ul poly(dI-dC), 15 min, room temperature; 5% acrylamide gel in 0.5X Tris-borate at 4 C. Conditions: protein: recombinant; tags: N-terminal MBP; label: 5' IRDye 700 (labeled version); blunt.

The record followed here is publication PMC4077741, “Miz-1 Activates Gene Expression via a Novel Consensus DNA Binding Motif”.

Sequence of Cux1 (P39880 whole entry): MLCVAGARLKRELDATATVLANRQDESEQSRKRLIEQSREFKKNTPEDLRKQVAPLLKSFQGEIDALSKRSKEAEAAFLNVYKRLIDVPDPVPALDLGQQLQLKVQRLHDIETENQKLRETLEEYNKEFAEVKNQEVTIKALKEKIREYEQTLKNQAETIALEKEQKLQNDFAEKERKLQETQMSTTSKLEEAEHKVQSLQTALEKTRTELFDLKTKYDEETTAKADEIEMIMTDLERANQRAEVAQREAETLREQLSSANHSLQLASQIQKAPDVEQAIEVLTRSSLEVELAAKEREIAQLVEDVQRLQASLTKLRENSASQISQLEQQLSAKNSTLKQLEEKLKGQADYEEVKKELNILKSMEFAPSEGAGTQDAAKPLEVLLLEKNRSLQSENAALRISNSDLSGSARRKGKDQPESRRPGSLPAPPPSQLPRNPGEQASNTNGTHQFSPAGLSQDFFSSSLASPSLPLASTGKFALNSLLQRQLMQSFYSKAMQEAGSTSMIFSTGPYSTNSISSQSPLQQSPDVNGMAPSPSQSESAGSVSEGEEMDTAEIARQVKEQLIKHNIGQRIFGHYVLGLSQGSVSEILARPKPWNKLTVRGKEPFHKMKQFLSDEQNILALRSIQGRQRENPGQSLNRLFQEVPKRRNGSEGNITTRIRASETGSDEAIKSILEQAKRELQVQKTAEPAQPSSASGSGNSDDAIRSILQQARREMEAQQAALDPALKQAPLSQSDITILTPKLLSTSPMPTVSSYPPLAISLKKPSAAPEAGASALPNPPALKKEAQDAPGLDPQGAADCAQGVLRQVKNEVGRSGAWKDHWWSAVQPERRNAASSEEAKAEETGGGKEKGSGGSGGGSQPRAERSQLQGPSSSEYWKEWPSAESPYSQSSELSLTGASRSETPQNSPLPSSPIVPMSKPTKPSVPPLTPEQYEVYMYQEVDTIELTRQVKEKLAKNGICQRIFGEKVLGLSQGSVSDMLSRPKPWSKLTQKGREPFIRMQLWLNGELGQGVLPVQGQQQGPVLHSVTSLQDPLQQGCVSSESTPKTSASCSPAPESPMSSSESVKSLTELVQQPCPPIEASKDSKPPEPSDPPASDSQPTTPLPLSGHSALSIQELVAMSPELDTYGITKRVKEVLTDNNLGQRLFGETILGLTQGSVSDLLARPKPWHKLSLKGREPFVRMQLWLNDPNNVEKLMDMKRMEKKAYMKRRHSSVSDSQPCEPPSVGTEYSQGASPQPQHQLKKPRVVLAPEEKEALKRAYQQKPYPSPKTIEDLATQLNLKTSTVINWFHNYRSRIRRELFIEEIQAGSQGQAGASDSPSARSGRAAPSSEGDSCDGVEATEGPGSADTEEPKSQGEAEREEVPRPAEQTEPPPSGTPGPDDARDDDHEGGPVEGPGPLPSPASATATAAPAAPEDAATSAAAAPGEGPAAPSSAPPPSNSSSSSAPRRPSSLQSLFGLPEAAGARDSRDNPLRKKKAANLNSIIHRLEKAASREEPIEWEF

Turning to “GAATTATCCGTAATGCATCGAGGT (double strand) [P1m2]”, the binding signal (% reduction of bound labeled P1) in data set [1] (unlabeled P1m2 vs labeled P1, competition nearly eliminated) is 24.
In data set [1] (unlabeled P1m1 vs labeled P1, competition nearly eliminated), “GAATTAGGAGTAAACCATCGAGGT (double strand) [P1m1]” came in with a binding signal (% reduction of bound labeled P1) of 7.
As for “GAATTATCGGTAATCCATCGAGGT (double strand) [P1]”, the binding signal with Cux1 (scale: bound intensity relative to P2) stood at 0.5. Moreover, the binding signal (% reduction of bound labeled P1) in data set [1] (200-fold unlabeled P1 vs labeled P1) turned out to be 87.
“AGGGTTGGTATCGATTATCGAGTT (double strand) [P2]” returned a binding signal (fold bound intensity P2 over P1) in the data set with Cux1 of 2.

B1: P2 (dsDNA)
DNA 1: AGGGTTGGTATCGATTATCGAGTT
DNA 2: AACTCGATAATCGATACCAACCCT
With B1, the values for the binding signal with MBP-Miz-1-FL [2] and in the data set with MBP-Miz-1-FL [3] were 2 fold reduction of bound labeled P1 and 6.4 fold reduction of bound labeled P2, respectively.

B2: CP (dsDNA)
DNA 1: CAAAAGTGCGGCTGCGTGGTGCAC
DNA 2: GTGCACCACGCAGCCGCACTTTTG
As for B2, the binding result (with MBP-Miz-1-FL [4]; with Miz-1 untagged; in data set [5]) was “no binding” in each case.

B3: P1m3 (dsDNA)
DNA 1: ACCCTTATATCGGTAATCGGTAAG
DNA 2: CTTACCGATTACCGATATAAGGGT
Take B3: the binding result with MBP-Miz-1-FL [6] is reported as “binds”.

B4: P1 (dsDNA)
DNA 1: GAATTATCGGTAATCCATCGAGGT
DNA 2: ACCTCGATGGATTACCGATAATTC
Consider B4, for which the results for the binding signal (in [7]; with MBP-Miz-1-FL [8]; in the data set with MBP-Miz-1-FL [9]) were ~2.5 fold bound intensity P1 over P2, 5.3 fold reduction of bound labeled P1 and 4.8 fold reduction of bound labeled P2, respectively.
